Test results published in US20180244784A1 (published 2018).

B2: human VEGFR-2/Fc (R&D Systems) (Fc fusion)
chain: ASVGLPSVSLDLPRLSIQKDILTIKANTTLQITCRGQRDLDWLWPNNQSGSEQRVEVTECSDGLFCKTLTIPKVIGNDTGAYKCFYRETDLASVIYVYVQDYRSPFIASVSDQHGVVYITENKNKTVVIPCLGSISNLNVSLCARYPEKRFVPDGNRISWDSKKGFTIPSYMISYAGMVFCEAKINDESYQSIMYIVVVVGYRIYDVVLSPSHGIELSVGEKLVLNCTARTELNVGIDFNWEYPSSKHQHKKLVNRDLKTQSGSEMKKFLSTLTIDGVTRSDQGLYTCAASSGLMTKKNSTFVRVHEKPFVAFGSGMESLVEATVGERVRIPAKYLGYPPPEIKWYKNGIPLESNHTIKAGHVLTIMEVSERDTGNYTVILTNPISKEKQSHVVSLVVYVPPQIGEKSLISPVDSYQYGTTQTLTCTVYAIPPPHHIHWYWQLEEECANEPSQAVSVTNPYPCEEWRSVEDFQGGNKIEVNKNQFALIEGKNKTVSTLVIQAANVSALYKCEAVNKVGRGERVISFHVTRGPEITLQPDMQPTEQESVSLWCTADRSTFENLTWYKLGPQPLPIHVGELPTPVCKNLDTLWKLNATMFSNSTNDILIMELKNASLQDQGDYVCLAQDRKTKKRHCVVRQLTVLERVAPTITGNLENQTTSIGESIEVSCTASGNPPPQIMWFKDNETLVEDSGIVLKDGNRNLTIRRVRKEDEGLYTCQACSVLGCAKVEAFFIIEGAQEKTNLE
notes: also called recombinant VEGFR2/Fc; VEGFR/Fc; not shown: Fc part of the bought fusion; It was captured by goat anti-human IgG-Fc in the ELISA

What was measured:
[1] = target: T1, mouse VEGFR-2/Fc (R&D Systems) (mouse, UniProt P35918 20-762); assay: SPR (Biacore 3000), immobilized mouse VEGFR-2/Fc
T1 construct: not shown: Fc part of the bought fusion, not described

[2] = target: B2; assay: SPR (Biacore 3000), sdAb monomer over amine-coupled human VEGFR-2/Fc, 25 C
[3] = target: T2, V21H4-DOS47 (V21H4, SEQ ID NO:6, conjugated to urease through BM(PEG)2) (jack bean (Canavalia ensiformis), UniProt P07374 1-840); assay: ELISA, VEGFR2/Fc captured on anti-human IgG-Fc, conjugate detected with anti-urease
T2 construct: also called V21-DOS47

[4] = target: V21H1-DOS47 (V21H1, SEQ ID NO:3, conjugated to urease through SM(PEG)2) (jack bean (Canavalia ensiformis), UniProt P07374 1-840); assay: as above
[5] = target: T3, V21H4-DOS47 with 5.1 antibodies per urease (Canavalia ensiformis, UniProt P07374); assay: as above
T3 construct: subunit of the homohexameric enzyme

[6] = target: V21H4-DOS47 with 9.4 antibodies per urease (jack bean (Canavalia ensiformis), UniProt P07374 1-840); assay: as above
[7] = target: V21H4-DOS47 with 3.3 antibodies per urease (jack bean (Canavalia ensiformis), UniProt P07374 1-840); assay: as above
[8] = target: T4, V21H4-DOS47 with 6.6 antibodies per urease (Canavalia ensiformis, UniProt P07374); assay: as above
T4 construct: subunit of the homohexameric enzyme

[9] = target: V21H4-DOS47 with 2.3 antibodies per urease (jack bean (Canavalia ensiformis), UniProt P07374 1-840); assay: as above
[10] = target: T5, V21H4-DOS47 with 8.7 antibodies per urease (Canavalia ensiformis, UniProt P07374); assay: as above
T5 construct: subunit of the homohexameric enzyme

[11] = target: V21H4-DOS47 with 1.4 antibodies per urease (jack bean (Canavalia ensiformis), UniProt P07374 1-840); assay: as above
[12] = target: T6, V21H4-DOS47 with 7.2 antibodies per urease (Canavalia ensiformis, UniProt P07374); assay: as above
T6 construct: subunit of the homohexameric enzyme

[13] = target: T7, AB4 (SEQ ID NO:27)-DOS47 antibody-urease conjugate (jack bean (Canavalia ensiformis), UniProt P07374 1-840); assay: ELISA, urease conjugates on VEGFR2/Fc
T7 construct: also called AB4-DOS47

[14] = target: T8, AB3m (SEQ ID NO:23)-DOS47 antibody-urease conjugate (jack bean (Canavalia ensiformis), UniProt P07374 1-840); assay: ELISA, urease conjugates on VEGFR2/Fc
T8 construct: also called AB3-DOS47

[15] = target: T9, AB2 (SEQ ID NO:13)-DOS47 antibody-urease conjugate (jack bean (Canavalia ensiformis), UniProt P07374 1-840); assay: ELISA, urease conjugates on VEGFR2/Fc
T9 construct: also called AB2-DOS47

[16] = target: T10, AB1m (SEQ ID NO:9)-DOS47 antibody-urease conjugate (jack bean (Canavalia ensiformis), UniProt P07374 1-840); assay: ELISA, urease conjugates on VEGFR2/Fc
T10 construct: also called AB1-DOS47

[17] = target: T7, AB4 (SEQ ID NO:27)-DOS47 …; assay: ELISA, VEGFR3/Fc captured by anti-human IgG-Fc, conjugate detected with anti-urease
[18] = target: T8, AB3m (SEQ ID NO:23)-DOS47 …; assay: as above
[19] = target: T9, AB2 (SEQ ID NO:13)-DOS47 …; assay: as above
[20] = target: T10, AB1m (SEQ ID NO:9)-DOS47 …; assay: as above
[21] = target: T11, human VEGFR2 (KDR) expressed on 293/KDR cells (human, UniProt P35968 20-1356); assay: flow cytometry on 293/KDR cells, S/N against the biotin-isotype control
[22] = target: B2; assay: ELISA, VEGFR2/Fc captured by anti-human IgG-Fc, biotin-V21H4 detected with streptavidin-AP; antibody alone, not conjugated
[23] = target: B2; assay: ELISA, VEGFR2/Fc captured on anti-human IgG-Fc, biotinylated antibody detected with streptavidin-alkaline phosphatase
[24] = target: T11, human VEGFR2 (KDR) expressed on 293/KDR …; assay: flow cytometry on 293/KDR cells, detected with PE-streptavidin
[25] = target: B2; assay: SPR (Biacore 3000), sdAb monomer over amine-coupled human VEGFR-2/Fc, 25 C; constants estimated from transformed data (FIG. 3)

T1 sequence (P35918 20-762 limits assumed): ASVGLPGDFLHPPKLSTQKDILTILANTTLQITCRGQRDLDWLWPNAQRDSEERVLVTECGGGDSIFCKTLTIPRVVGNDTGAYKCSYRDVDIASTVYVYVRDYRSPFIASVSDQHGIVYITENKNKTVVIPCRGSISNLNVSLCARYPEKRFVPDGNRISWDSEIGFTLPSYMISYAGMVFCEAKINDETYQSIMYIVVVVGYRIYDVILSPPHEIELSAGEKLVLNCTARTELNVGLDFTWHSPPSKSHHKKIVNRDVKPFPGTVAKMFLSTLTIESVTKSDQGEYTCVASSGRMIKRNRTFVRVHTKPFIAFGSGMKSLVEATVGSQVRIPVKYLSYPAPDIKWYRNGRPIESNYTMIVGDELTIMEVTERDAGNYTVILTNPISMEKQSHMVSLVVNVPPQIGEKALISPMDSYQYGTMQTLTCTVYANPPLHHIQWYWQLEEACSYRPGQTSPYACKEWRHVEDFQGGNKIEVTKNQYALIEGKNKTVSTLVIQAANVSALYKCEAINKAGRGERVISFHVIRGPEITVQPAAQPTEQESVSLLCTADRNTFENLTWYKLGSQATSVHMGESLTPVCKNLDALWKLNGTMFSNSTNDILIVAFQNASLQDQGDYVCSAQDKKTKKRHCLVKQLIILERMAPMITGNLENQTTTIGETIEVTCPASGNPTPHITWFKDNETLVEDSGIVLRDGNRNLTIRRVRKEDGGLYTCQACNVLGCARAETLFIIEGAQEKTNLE
T10 sequence (VHH, as listed by the source limits assumed, chain 1 of 2): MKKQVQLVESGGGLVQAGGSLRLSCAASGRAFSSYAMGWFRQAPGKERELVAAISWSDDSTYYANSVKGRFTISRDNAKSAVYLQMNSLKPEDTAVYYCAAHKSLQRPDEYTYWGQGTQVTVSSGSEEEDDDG
T10 sequence (P07374 whole entry, chain 2 of 2): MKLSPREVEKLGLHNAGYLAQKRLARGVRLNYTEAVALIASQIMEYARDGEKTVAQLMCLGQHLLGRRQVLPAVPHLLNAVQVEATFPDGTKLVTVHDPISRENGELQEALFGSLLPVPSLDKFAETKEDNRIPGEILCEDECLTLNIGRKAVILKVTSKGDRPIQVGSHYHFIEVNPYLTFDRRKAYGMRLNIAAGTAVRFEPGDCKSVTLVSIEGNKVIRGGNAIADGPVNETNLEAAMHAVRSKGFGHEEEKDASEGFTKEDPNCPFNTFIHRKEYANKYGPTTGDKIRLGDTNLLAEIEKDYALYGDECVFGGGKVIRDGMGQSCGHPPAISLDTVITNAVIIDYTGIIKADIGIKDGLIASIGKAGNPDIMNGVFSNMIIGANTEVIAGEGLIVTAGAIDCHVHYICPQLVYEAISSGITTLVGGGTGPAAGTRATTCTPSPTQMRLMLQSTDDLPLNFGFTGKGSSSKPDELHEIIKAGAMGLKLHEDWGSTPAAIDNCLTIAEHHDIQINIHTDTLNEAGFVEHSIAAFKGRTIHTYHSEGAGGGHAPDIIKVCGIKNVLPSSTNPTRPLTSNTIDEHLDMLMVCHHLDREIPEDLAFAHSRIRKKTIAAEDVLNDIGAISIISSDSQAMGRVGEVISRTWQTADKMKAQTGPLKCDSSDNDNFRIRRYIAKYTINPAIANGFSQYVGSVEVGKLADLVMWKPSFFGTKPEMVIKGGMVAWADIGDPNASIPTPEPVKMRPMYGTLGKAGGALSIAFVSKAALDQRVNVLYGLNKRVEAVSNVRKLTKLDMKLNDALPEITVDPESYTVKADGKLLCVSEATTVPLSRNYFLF
T8 sequence (VH, as listed by the source limits assumed, chain 1 of 2): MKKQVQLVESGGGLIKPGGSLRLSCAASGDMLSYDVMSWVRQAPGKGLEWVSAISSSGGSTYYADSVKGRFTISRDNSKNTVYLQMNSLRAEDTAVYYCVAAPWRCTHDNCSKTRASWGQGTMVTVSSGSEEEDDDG
T8 sequence (P07374 whole entry, chain 2 of 2): as the sequence (P07374 whole entry, chain 2 of 2) above
T7 sequence (VHH, as listed by the source limits assumed, chain 1 of 2): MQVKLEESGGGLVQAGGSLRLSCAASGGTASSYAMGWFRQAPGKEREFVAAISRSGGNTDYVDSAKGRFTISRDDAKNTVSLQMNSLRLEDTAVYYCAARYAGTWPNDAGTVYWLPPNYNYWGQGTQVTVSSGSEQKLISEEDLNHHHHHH
T7 sequence (P07374 whole entry, chain 2 of 2): as the sequence (P07374 whole entry, chain 2 of 2) above
T9 sequence (P07374 whole entry): as the sequence (P07374 whole entry, chain 2 of 2) above
V21H4-DOS47 with 1.4 antibodies per urease, sequence (VHH, as listed by the source limits assumed, chain 1 of 2): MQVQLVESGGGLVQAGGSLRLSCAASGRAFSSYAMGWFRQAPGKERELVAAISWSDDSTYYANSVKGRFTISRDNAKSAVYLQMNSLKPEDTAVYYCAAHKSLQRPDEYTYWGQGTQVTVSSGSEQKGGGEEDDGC
V21H4-DOS47 with 1.4 antibodies per urease, sequence (P07374 whole entry, chain 2 of 2): as the sequence (P07374 whole entry, chain 2 of 2) above
T6 sequence (P07374 whole entry, chain 2 of 2): as above
T3 sequence (P07374 whole entry, chain 2 of 2): as above
T2 sequence (P07374 whole entry, chain 2 of 2): as above
T5 sequence (P07374 whole entry, chain 2 of 2): as above
V21H4-DOS47 with 3.3 antibodies per urease, sequence (P07374 whole entry, chain 2 of 2): as above
V21H4-DOS47 with 2.3 antibodies per urease, sequence (P07374 whole entry, chain 2 of 2): as above
V21H4-DOS47 with 9.4 antibodies per urease, sequence (P07374 whole entry, chain 2 of 2): as above
T4 sequence (P07374 whole entry, chain 2 of 2): as above
V21H1-DOS47 (V21H1, SEQ ID NO:3, conjugated to urease through SM(PEG)2), sequence (VHH, as listed by the source limits assumed, chain 1 of 2): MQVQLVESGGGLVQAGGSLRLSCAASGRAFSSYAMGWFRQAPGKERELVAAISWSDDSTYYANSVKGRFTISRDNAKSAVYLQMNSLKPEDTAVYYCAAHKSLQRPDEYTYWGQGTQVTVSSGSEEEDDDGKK
V21H1-DOS47 (V21H1, SEQ ID NO:3, conjugated to urease through SM(PEG)2), sequence (P07374 whole entry, chain 2 of 2): as the sequence (P07374 whole entry, chain 2 of 2) above

B1: AB2 with linker 2 (SEQ ID NO:13) (other)
VH: MQVQLVESGGGLIKPGGSLRLSCAASGFRFSAESMTWVRQAPGKGLEWVSAISSSGGSTYYADSVKGRFTISRDNSKNTVYLQMNSLRAEDTAVYYCVRSPKGCTHASCSWNSGSWGQGTLVTVSSGSEQKLISEEDLNHHHHH
notes: also called VR2-801-18; V18 with c-Myc/His5 tail
binding result [1]: no binding (tested: 150-200 nM)
Kd [2]: 500 nM
koff [2]: 0.02 s⁻¹
kon [2]: 46000 M⁻¹ s⁻¹

B2
binding result [3]: binds
binding result [4]: binds
binding result [5]: binds
binding result [6]: binds
binding result [7]: binds
binding result [8]: binds
binding result [9]: binds
binding result [10]: binds
binding result [11]: binds
binding result [12]: binds
binding result [13]: binds
binding result [14]: binds
binding result [15]: binds
binding result [16]: binds

B3: AB4 with linker 2 (SEQ ID NO:27) (VHH)
VHH: QVKLEESGGGLVQAGGSLRLSCAASGGTASSYAMGWFRQAPGKEREFVAAISRSGGNTDYVDSAKGRFTISRDDAKNTVSLQMNSLRLEDTAVYYCAARYAGTWPNDAGTVYWLPPNYNYWGQGTQVTVSS
notes: also called VR2-38; V38 with c-Myc/His6 tail
binding result [1]: no binding (tested: 150-200 nM)

B4: AB3 with linker 2 (SEQ ID NO:21) (other)
VH: MQVQLVESGGGLIKPGGSLRLSCAASGDMLSYDVMSWVRQAPGKGLEWVSAISSSGGSTYYADSVKGRFTISRDNSKNTVYLQMNSLRAEDTAVYYCVAAPWRCTHDNCSKTRASWGQGTMVTVSSGSEQKLISEEDLNHHHHH
notes: also called VR2-801-45; V45 with c-Myc/His5 tail
binding result [1]: no binding (tested: 150-200 nM)
Kd [2]: 900 nM
koff [2]: 0.045 s⁻¹
kon [2]: 53000 M⁻¹ s⁻¹

B5: VEGFR3/Fc (R&D Systems) (Fc fusion)
chain: YSMTPPTLNITEESHVIDTGDSLSISCRGQHPLEWAWPGAQEAPATGDKDSEDTGVVRDCEGTDARPYCKVLLLHEVHANDTGSYVCYYKYIKARIEGTTAASSYVFVRDFEQPFINKPDTLLVNRKDAMWVPCLVSIPGLNVTLRSQSSVLWPDGQEVVWDDRRGMLVSTPLLHDALYLQCETTWGDQDFLSNPFLVHITGNELYDIQLLPRKSLELLVGEKLVLNCTVWAEFNSGVTFDWDYPGKQAERGKWVPERRSQQTHTELSSILTIHNVSQHDLGSYVCKANNGIQRFRESTEVIVHENPFISVEWLKGPILEATAGDELVKLPVKLAAYPPPEFQWYKDGKALSGRHSPHALVLKEVTEASTGTYTLALWNSAAGLRRNISLELVVNVPPQIHEKEASSPSIYSRHSRQALTCTAYGVPLPLSIQWHWRPWTPCKMFAQRSLRRRQQQDLMPQCRDWRAVTTQDAVNPIESLDTWTEFVEGKNKTVSKLVIQNANVSAMYKCVVSNKVGQDERLIYFYVTTIPDGFTIESKPSEELLEGQPVLLSCQADSYKYEHLRWYRLNLSTLHDAHGNPLLLDCKNVHLFATPLAASLEEVAPGARHATLSLSIPRVAPEHEGHYVCEVQDRRSHDKHCHKKYLSVQALEAPRLTQNLTDLLVNVSDSLEMQCLVAGAHAPSIVWYKDERLLEEKSGVDLADSNQKLSIQRVREEDAGRYLCSVCNAKGCVNSSASVAVEGSEDKGSMEI
notes: not shown: Fc part, captured by goat anti-human IgG-Fc; not described further
binding result [17]: no binding
binding result [18]: no binding
binding result [19]: no binding
binding result [20]: no binding

B6: biotin-V21H4 (biotinylated AB1 antibody, SEQ ID NO:6) (VHH)
VHH: QVQLVESGGGLVQAGGSLRLSCAASGRAFSSYAMGWFRQAPGKERELVAAISWSDDSTYYANSVKGRFTISRDNAKSAVYLQMNSLKPEDTAVYYCAAHKSLQRPDEYTYWGQGTQVTVSS
notes: also called V21H4 antibody alone; AB1C
EC50 (read off the curve) [21]: ~2 nM
EC50 [22]: 1.8 nM
EC50 (read off the curve) [23]: ~2 nM
EC50 [24]: 1.6 nM

B7: AB1 with linker 2 (SEQ ID NO:7) (VHH)
VHH: QVQLVESGGGLVQAGGSLRLSCAASGRAFSSYAMGWFRQAPGKERELVAAISWSDDSTYYANSVKGRFTISRDNAKSAVYLQMNSLKPEDTAVYYCAAHKSLQRPDEYTYWGQGTQVTVSS
notes: also called VR2-21; V21 with c-Myc/His6 tail
binding result [1]: no binding (tested: 150-200 nM)
Kd [25]: ~80 nM
koff [25]: < 0.01 s⁻¹
kon [25]: ~60000 M⁻¹ s⁻¹
